Assay results published in the Immune Epitope Database (IEDB).

Assays:
[1] = target: HLA-B*58:01; test: IEDB peptide-MHC binding, purified MHC/competitive/fluorescence; filed as Kd, often an IC50 or EC50 that approximates it; ≥ and ≤ were set here for values at or beyond the usual limits of such assays; conditions: source organism: Escherichia coli O139:H28 str. E24377A
[2] = target: HLA-B*08:01; test: as above
[3] = target: HLA-B*35:01; test: as above; conditions: source organism: Escherichia coli O139:H28 str. E24377A
[4] = target: HLA-B*15:01; test: as above
[5] = target: HLA-C*03:03; test: IEDB peptide-MHC binding, purified MHC/direct/fluorescence; filed as Kd, often an IC50 or EC50 that approximates it; ≥ and ≤ were set here for values at or beyond the usual limits of such assays; conditions: source organism: Escherichia coli O139:H28 str. E24377A
[6] = target: HLA-C*05:01; test: as above
[7] = target: HLA-A*31:01; test: as above
[8] = target: HLA-B*07:02; test: as above
[9] = target: HLA-A*69:01; test: as above
[10] = target: HLA-A*01:01; test: as above
[11] = target: HLA-B*40:01; test: as above
[12] = target: HLA-B*58:01; test: as above
[13] = target: HLA-A*03:01; test: as above
[14] = target: HLA-A*26:01; test: as above
[15] = target: HLA-B*08:01; test: as above
[16] = target: HLA-B*44:02; test: as above
[17] = target: HLA-B*35:01; test: as above
[18] = target: HLA-B*27:05; test: as above
[19] = target: HLA-A*11:01; test: as above
[20] = target: HLA-B*15:01; test: as above
[21] = target: HLA-A*02:01; test: as above
[22] = target: HLA-A*30:01; test: as above
[23] = target: HLA-A*24:03; test: as above
[24] = target: HLA-A*02:16; test: IEDB peptide-MHC binding, purified MHC/competitive/fluorescence; filed as Kd, often an IC50 or EC50 that approximates it; ≥ and ≤ were set here for values at or beyond the usual limits of such assays
[25] = target: HLA-A*02:01; test: as above
[26] = target: HLA-A*02:50; test: as above
[27] = target: HLA-A*02:16; test: IEDB peptide-MHC binding, purified MHC/direct/fluorescence; filed as Kd, often an IC50 or EC50 that approximates it; ≥ and ≤ were set here for values at or beyond the usual limits of such assays; conditions: source organism: Vibrio vulnificus CMCP6
[28] = target: HLA-A*02:12; test: as above; conditions: source organism: Vibrio vulnificus CMCP6
[29] = target: HLA-A*02:03; test: IEDB peptide-MHC binding, purified MHC/competitive/fluorescence; filed as Kd, often an IC50 or EC50 that approximates it; ≥ and ≤ were set here for values at or beyond the usual limits of such assays; conditions: source organism: Salmonella enterica subsp. enterica serovar Typhi
[30] = target: HLA-A*69:01; test: as above; conditions: source organism: Salmonella enterica subsp. enterica serovar Typhi
[31] = target: HLA-B*18:01; test: as above; conditions: source organism: Salmonella enterica subsp. enterica serovar Typhi
[32] = target: HLA-A*03:01; test: as above; conditions: source organism: Salmonella enterica subsp. enterica serovar Typhi
[33] = target: HLA-B*27:03; test: as above; conditions: source organism: Salmonella enterica subsp. enterica serovar Typhi
[34] = target: HLA-A*26:01; test: as above; conditions: source organism: Salmonella enterica subsp. enterica serovar Typhi
[35] = target: HLA-B*51:01; test: as above; conditions: source organism: Salmonella enterica subsp. enterica serovar Typhi
[36] = target: HLA-B*39:01; test: as above; conditions: source organism: Salmonella enterica subsp. enterica serovar Typhi
[37] = target: HLA-A*02:11; test: as above; conditions: source organism: Salmonella enterica subsp. enterica serovar Typhi
[38] = target: HLA-B*57:01; test: as above; conditions: source organism: Salmonella enterica subsp. enterica serovar Typhi
[39] = target: HLA-B*46:01; test: as above; conditions: source organism: Salmonella enterica subsp. enterica serovar Typhi
[40] = target: HLA-A*02:19; test: as above; conditions: source organism: Salmonella enterica subsp. enterica serovar Typhi
[41] = target: HLA-A*02:12; test: as above; conditions: source organism: Salmonella enterica subsp. enterica serovar Typhi
[42] = target: HLA-A*68:02; test: as above; conditions: source organism: Salmonella enterica subsp. enterica serovar Typhi
[43] = source organism: Escherichia coli O139:H28 str. E24377A
[44] = source organism: Vibrio cholerae
[45] = source organism: Francisella tularensis subsp. holarctica OSU18
[46] = source organism: Vibrio vulnificus
[47] = source organism: Vibrio vulnificus YJ016
[48] = source organism: Coxiella burnetii
[49] = source organism: Serratia marcescens
[50] = source organism: Salmonella enterica subsp. enterica serovar Typhi

With YALATQVEF the Kd [1] was 0.0045 µM, the Kd [2, 43] was 3.72 µM and the Kd [3] was ≤ 0.0001 µM. For the same sequence, the Kd [4, 43] was 0.0413 µM, the Kd [5] was ≤ 0.001 µM and the Kd [6, 43] was 2.65 µM.

EIFPNIKIY was tested, and the Kd [7, 44] was ≥ 20 µM, the Kd [8, 44] was ≥ 20 µM and the Kd [9, 44] was ≥ 20 µM. The Kd [10, 44] was ≥ 20 µM, the Kd [11, 44] was ≥ 20 µM and the Kd [12, 44] was ≥ 20 µM. The Kd [13, 44] was ≥ 20 µM, the Kd [14, 44] was 0.0738 µM and the Kd [15, 44] was ≥ 20 µM. For the same sequence, the Kd [16, 44] was ≥ 20 µM, the Kd [17, 44] was 0.164 µM and the Kd [18, 44] was ≥ 20 µM. For the same sequence, the Kd [19, 44] was ≥ 20 µM, the Kd [20, 44] was 0.465 µM and the Kd [21, 44] was ≥ 20 µM.

In the case of FPRSAERAG, the Kd [22, 44] is reported as ≥ 10 µM, the Kd [7, 44] is reported as ≥ 20 µM and the Kd [8, 44] is reported as 0.201 µM. For the same sequence, the Kd [9, 44] was ≥ 20 µM, the Kd [10, 44] was ≥ 20 µM and the Kd [11, 44] was ≥ 20 µM. The Kd [12, 44] was ≥ 20 µM, the Kd [13, 44] was ≥ 20 µM and the Kd [14, 44] was ≥ 20 µM. The Kd [15, 44] was ≥ 20 µM, the Kd [16, 44] was ≥ 20 µM and the Kd [17, 44] was 0.0434 µM. The Kd [18, 44] was ≥ 20 µM, the Kd [19, 44] was ≥ 20 µM and the Kd [23, 44] was ≥ 20 µM. The Kd [20, 44] was ≥ 20 µM and the Kd [21, 44] was ≥ 20 µM.

DLLKPNYAL gave a Kd [2, 43] of 4.02 µM.

FGLLPEHYV gave a Kd [24, 45] of 0.0601 µM and a Kd [25, 45] of 0.12 µM.

For VNGVKGIQF, the Kd [22, 46] was ≥ 20 µM, the Kd [7, 46] was ≥ 20 µM and the Kd [9, 46] was ≥ 20 µM. The Kd [10, 46] was ≥ 20 µM, the Kd [11, 46] was ≥ 20 µM and the Kd [12, 46] was ≥ 20 µM. For the same sequence, the Kd [13, 46] was ≥ 20 µM, the Kd [14, 46] was ≥ 20 µM and the Kd [15, 46] was ≥ 20 µM. For the same sequence, the Kd [16, 46] was ≥ 20 µM, the Kd [17, 46] was 1 µM and the Kd [18, 46] was ≥ 20 µM. The Kd [19, 46] was ≥ 20 µM, the Kd [23, 46] was ≥ 20 µM and the Kd [20, 46] was ≥ 20 µM. The Kd [21, 46] was ≥ 20 µM.

MSDWGHITV was tested, and the Kd [26, 47] was 0.0098 µM, the Kd [9, 46] was ≤ 0.001 µM and the Kd [27] was 0.029 µM. The Kd [6, 47] was ≤ 0.001 µM, the Kd [28] was 0.056 µM and the Kd [21, 46] was 0.276 µM.

With SYGNANVSF the Kd [7, 48] was ≥ 20 µM, the Kd [8, 48] was ≥ 20 µM and the Kd [9, 48] was ≥ 20 µM. For the same sequence, the Kd [10, 48] was 1.81 µM, the Kd [11, 48] was ≥ 20 µM and the Kd [12, 48] was ≥ 20 µM. For the same sequence, the Kd [13, 48] was ≥ 20 µM, the Kd [14, 48] was ≥ 20 µM and the Kd [15, 48] was ≥ 20 µM. For the same sequence, the Kd [16, 48] was ≥ 20 µM, the Kd [17, 48] was 0.264 µM and the Kd [18, 48] was ≥ 20 µM. For the same sequence, the Kd [19, 48] was ≥ 5 µM, the Kd [20, 48] was 1.14 µM and the Kd [21, 48] was ≥ 20 µM.

For QLKYKYPAL, the Kd ([2]; source organism: Influenza A virus (A/Tokyo/1566/98(H3N2))) was 0.0679 µM.

With LIPDGDGEV the Kd [26, 49] was 0.0017 µM, the Kd [7, 49] was ≥ 20 µM and the Kd [8, 49] was ≥ 20 µM. The Kd [9, 49] was ≥ 20 µM, the Kd [10, 49] was ≥ 20 µM and the Kd [11, 49] was ≥ 20 µM. For the same sequence, the Kd [12, 49] was ≥ 20 µM, the Kd [13, 49] was ≥ 20 µM and the Kd [14, 49] was ≥ 20 µM. The Kd [15, 49] was ≥ 20 µM, the Kd [18, 49] was ≥ 20 µM and the Kd [20, 49] was ≥ 20 µM. The Kd [21, 49] was ≥ 20 µM.

KTVRYWHRF was tested, and the Kd [29] was ≥ 20 µM, the Kd [30] was ≥ 20 µM and the Kd [31] was ≥ 20 µM. The Kd [24, 50] was ≥ 20 µM, the Kd [32] was ≥ 20 µM and the Kd [33] was ≥ 20 µM. For the same sequence, the Kd [34] was ≥ 20 µM, the Kd [35] was ≥ 20 µM and the Kd [36] was ≥ 20 µM. The Kd [37] was ≥ 20 µM, the Kd [38] was 0.0403 µM and the Kd [39] was ≥ 20 µM. The Kd [40] was ≥ 20 µM, the Kd [41] was ≥ 20 µM and the Kd [4, 50] was ≥ 20 µM. For the same sequence, the Kd [25, 50] was ≥ 20 µM and the Kd [42] was ≥ 20 µM.
